The values below come from the DeepSol protein solubility set.

The nature of the data set: soluble on expression in E. coli; label from the status in PepcDB or PDB records.
For the sequence “MGHHHHHHSHMEKNLLLTIESLYKNLRKANKAVDFTTVKFLLQDSRSLLHAFSTRSNYDGILPQTFAQVNNLLQTFAEVKTKLKPNSSENTVTKKQEGTSLKNSHNQEITVFSSSHLPQPSRHQEIWSILESVWITIYQNSTDVFQRLGSNSALTTSNIASFEEAFICLQKLMAAVRDILEGIQRILAPNSNYQDVETLYNFLIKYEVNKNVKFTAQEIYDCVSQTEYREKLTIGCRQLVEMEYTMQQCNASVYMEAKNRGWCEDMLNYRI”, the “soluble on expression in E. coli” value is reported as “not soluble”. Regarding “MSSFFPLPPAIGKSTGCGVRDESQSLVVWAIEDYSIPESIDPDMINLKIETAIVKKFNLRSSAVVTTWIFGSAENAWLAKSKVKLWESEFRVSLHKGGDKRARLNMMLADVIYYVWNWKAPTNLAVLTENKEEMEQDPKFFRFRQALENKGFFVAVEHPETLINQETAVEDPPDDSPIPYYPSDNPQKLAFWYKEDSEAYRAKYKQVRGTKRTI”, the “soluble on expression in E. coli” value is recorded as “soluble”. “MGSDKIHHHHHHMKFKERLQYLRLEKELSEIQLSKKVGISESVIRLYERGKLRIDLEHLHKLAAFFDVTPGLLLGTAFPHLPPEEALESYRVVNKLLEIRNEERKDEEDSPLFIDTLAQLAAESNKSDNKASNRQATIRAGVVAVYHKIVSAHSEANQEFIEDYWPVNTTVMQIYGHDISNYFYLRVHGDFMEPTIKNQSIVLAKRQVQVDNNDLAVVLYEQSPAAVKRLNRYEDKIILLCDNKAHPAQICEQEKCIILGKVLWKPK”: the “soluble on expression in E. coli” value is reported as “not soluble”. In the case of “MGSSHHHHHHSSGLVPRGSHMAPIVETAKETNSDSSLYLDLMIKVLAGTVYEDPAHRENFSHRDSTYREEVRNEGRDWPANAHTMIGIKRLENIRQCVEDVIGNNVPGDLVETGVWRGGACILMRGILRAHDVRDRTVWVADSFQGIPDVGEDGYAGDRKMALHRRNSVLAVSEEEVRRNFRNYDLLDEQVRFLPGWFKDTLPTAPIDTLAVLRMDGDLYESTWDTLTNLYPKVSVGGYVIVDDYMMCPPCKDAVDEYRAKFDIADELITIDRDGVYWQRTR”, the “soluble on expression in E. coli” value is on record as “soluble”. As to “SPSETLWEIAKAEVEKRRSHGSEGDGAEIGEKSVFFIGSKNGGKTTIILRCLDRDESAKPTLALEYTYGRKTKGHNTPKDIAHFWELGGGTSLLDLISIPITVDTLRTFSIVLVLDLSKPNDLWSTMENLLQATKSHVDKVIMKLGKTSSKASAEMRQRMWSVVQKDHPDRELIDPFPIPLVIIGSKYDIFQDFDPEKRKVICKTLRFVAHYYGASLMFTSKSEALLLKIRGVINQLAFGIDKSKSICVDQNKPLFITAGLDSLCQIGSPPVPDSDIGKLQAHSPMELWKKVYDKLFPPKSTGTLKAVQDPARDPQYAESEVDEMRVQKDQELEHYKRSSSKTWKQIELDS”, the “soluble on expression in E. coli” value is listed as “soluble”. Under “MEKNEKNGVFSRVRSRWRSIFSKKANPVKLRDCNRLTFERILSDPNEQIGTIVAQATVEPITLPNGGGIALIQETTLYEEDYGLEDSSNFPIISETAQSLRRRMRRLSSGDLNVIRRMTEEIDFDLKNIIYDGNEITGETDADNGNDRACFKPGPDYPIDQQMLFLKQCIKKIDTRPPNMYYLTNGWSVDNFEALFKYMIRSGEDCSRDTLLRVEFRDCVVSLKSLYDFIEEYATFKGVKMHSDYVYAIVHSRNEKLERRLRGAIDSFMEIESKIRQARISYVSSFTINSPHTPNVSIIVKFCCLKPCNSDAKTKMRQISVQVDHVTGRSRMSLPDVRQHEGLVCECLGDFSLIRHRPTSVPVTKILDEHPPLIVDEEVRLKSSYQFNPVTGEPIPDDEQQQEQTEIEVNKKIKKPKIVPNQTLLGNEHDIFPRFSIFIGFYKASIEDPLEINDFVEMFPLILVLLEKAGIQELEDGDAPEKSVSKYPKKRSIVDGASSETCEDTQSVGSSESSEPRSPEFTEYSESEDTAADSETSDSESSSEDEKENMKSSIKELELIKDAPEDL” stands “soluble”; under “MVYDDANKKWVPAGGSTGFSRVHIYHHTGNNAFRVVGRKIQDHQVVINCAIPKGLKYNQATQTFHQWRDARQVYGLNFGSKEDASVFASAMMHALEVLNSQDAGEKALFTAGCEV”, “soluble”; under “MGSSHHHHHHSSGLVPRGSHMAMVELSGTVTFWDTSNEAEKATYQALAEGFEKEHPKVDVKYVNVPFGEANAKFKNAAGGNSGAPDVMRTEVAWVADFASIGYLAPLDGTPALDDGSDHLPQAAASTRYEGKTYAVPQVIDTLALFYNKELLTKAGVEVPGSVAELKTAAAEITEKTGATGLYLRGDDPYWFLPYLYGEGGDLVDEKNKTVTVDDEAGVRAYRVIKDLVDSKAAITDASDGWNNMQNAFKSGKVAMMVNGPWAIEDVKAGARFKDAGNLGVAPVPAGSAGQGSPQGGWNLSVYAGSKNLDASYAFVKYMSSAKVQQQTTEKLSLLPTRTSVYEVPSVADNEMVKFFKPAVDKAVERPWIAEGNALFEPIRLQMANVLSGETSPDEAAANTGDAYRKLLKDYK”, “soluble”. Under “MGSDKIHHHHHHMMKSVLADAVFGGALMIEFYASEALICPRRVWFRLKGIPEKWPEVAKPRLEKGMKIHEVLGKVLKDRFDVELEKSVIIRFPKLGMEIHGKIDVYKEFPIEIKGKSYIPSSPIDYHLAQLNLYLRGVNAEYGYLYYVKLTDDPWRAISDIVFDSFPLIKGNGLKIFEVPYDEVLFKETVKYFYEIKLYLENDELPPAWKGPHCKFCPYNYICLSGEEF” stands “not soluble”; under “MSSVGAGFRLARAGWVLVREGVIAALPGEELSGLPKFGWQLARLFTRRRALAYQRSDRLAKAVVRLGPSYVKLGQFLATRPDVVGNDMALDLAMLQDKMHTFPKAEAVAAIEASLGRKVRDLYAEFGLEHHHHHH”, “not soluble”; under “MSEIPTEVPVKTRKRTYDLKFKLHAINYALEHKNISKAAKDLNVNRQNIQQWIAQKAEIEKQLEDNGSTATKRLSGGGRPLKYDDVDKELIKWVHDQRKEKQRVTRRIIGETAKKISQNSDFKASRGWLDKFMCRHNLSTRRARTEPGDLMQTLVDILLRQTSSDDGEEDPMISFIKSCIPSGEDPLEGEDQAASSSVQVPKVLAEENGHESDSDQSIVDVND”, “not soluble”. As for “MSLDLEFHGVMRFYFQDKAAGNFATKCIRVSSTATTQDVIETLAEKFRPDMRMLSSPKYSLYEVHVSGERRLDIDEKPLVVQLNWNKDDREGRFVLKNENDAIPPKAQSNGPEKQEKEGVIQNFKRTLSKKEKKEKKKREKEALRQASDKDDRPFQGEDVENSRLAAEVYKDMPETSFTRTISNPEVVMKRRRQQKLEKRMQEFRSSDGRPDSGGTLRIYADSLKPNIPYKTILLSTTDPADFAVAEALEKYGLEKENPKDYCIARVMLPPGAQHSDEKGAKEIILDDDECPLQIFREWPSDKGILVFQLKRRPPDHIPKKTKKHLEGKTPKGKERADGSGYGSTLPPEKLPYLVELSPGRRNHFAYYNYHTYEDGSDSRDKPKLYRLQLSVTEVGTEKLDDNSIQLFGPGIQPHHCDLTNMDGVVTVTPRSMDAETYVEGQRISETTMLQSGMKVQFGASHVFKFVDPSQDHALAKRSVDGGLMVKGPRHKPGIVQETTFDLGGDIHSGTALPTSKSTTRLDSDRVSSASSTAERGMVKPMIRVEQQPDYRRQESRTQDASGPELILPASIEFRESSEDSFLSAIINYTNSSTVHFKLSPTYVLYMACRYVLSNQYRPDISPTERTHKVIAVVNKMVSMMEGVIQKQKNIAGALAFWMANASELLNFIKQDRDLSRITLDAQDVLAHLVQMAFKYLVHCLQSELNNYMPAFLDDPEENSLQRPKIDDVLHTLTGAMSLLRRCRVNAALTIQLFSQLFHFINMWLFNRLVTDPDSGLCSHYWGAIIRQQLGHIEAWAEKQGLELAADCHLSRIVQATTLLTMDKYAPDDIPNINSTCFKLNSLQLQALLQNYHCAPDEPFIPTDLIENVVTVAENTADELARSDGREVQLEEDPDLQLPFLLPEDGYSCDVVRNIPNGLQEFLDPLCQRGFCRLIPHTRSPGTWTIYFEGADYESHLLREGHHHHHH”, the “soluble on expression in E. coli” value is given as “soluble”. As to “MKHVPIRMCVACRRRRPKGELLRILVTEEGFVIDPSGKRPGRGAYVCPDSPECRSEKRLRRFAGAKARALAEALAAYLGGEDGQGKDLPAG”, the “soluble on expression in E. coli” value is listed as “soluble”. For “MGSDKIHHHHHHMMPYITDIAALEHVGVAAAWTEKVPAFRVLREKRMLDFRAPITVITGENGVGKSTLLEAIAINAGFDTAGGEHTGKFKPSDNPLQTVAKAHKGKEPMRGYFLRAETHFNVASGYRDEAPGWVNLHHMSHGESVMHIVQNAFVGKGLYLMDEPEAGLSFIRQMAILAELNFLAESGAQIIIVTHSPVLMAIPGAEIWEFSASGELHRGFDFEVTTAFRALRDFFEDPEEIAEYMMDVMMDNKGES”, the “soluble on expression in E. coli” value is reported as “not soluble”.
